Experimental data taken from the supplement of paper PMC9112550, “Optimization of the antimicrobial peptide Bac7 by deep mutational scanning” (BMC Biology, 2022).

tested on: Escherichia coli TOP10; test: shrunken log2 fold change of peptide-encoding DNA abundance (4.5 h post-induction vs induction); higher = less antimicrobial activity (less host growth inhibition); settings: time post-induction: 4.5 h; library: site-saturation at positions 5, 18, 19, 20
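Further: peptides expressed intracellularly from a pBAD plasmid library in pooled LB shake-flask culture, induced with 0.3% L-arabinose, DNA abundance read by NGS, three biological replicates, DESeq2 with apeglm shrinkage.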

In order of rising “shrunken log2 fold change” value:
1. RRIRCRPPRLPRPRPRPHYQPRP  -1.29
2. RRIRCRPPRLPRPRPRPHHNPRP  -0.901
3. RRIRCRPPRLPRPRPRPCSYPRP  -0.895
4. RRIRCRPPRLPRPRPRPHNYPRP  -0.831
5. RRIRCRPPRLPRPRPRPHHLPRP  -0.808
6. RRIRCRPPRLPRPRPRPFKFPRP  -0.788
7. RRIRCRPPRLPRPRPRPFYEPRP  -0.741
8. RRIRCRPPRLPRPRPRPHTTPRP  -0.716
9. RRIRCRPPRLPRPRPRPFKAPRP  -0.713
10. RRIRCRPPRLPRPRPRPDFHPRP  -0.685
11. RRIRCRPPRLPRPRPRPDMQPRP  -0.672
12. RRIRCRPPRLPRPRPRPDFLPRP  -0.657
13. RRIRCRPPRLPRPRPRPHSNPRP  -0.625
14. RRIRCRPPRLPRPRPRPHNEPRP  -0.535
15. RRIRCRPPRLPRPRPRPGHKPRP  -0.514
16. RRIRCRPPRLPRPRPRPCTKPRP  -0.507
17. RRIRCRPPRLPRPRPRPCMAPRP  -0.427
18. RRIRCRPPRLPRPRPRPHVEPRP  -0.421
19. RRIRCRPPRLPRPRPRPCTVPRP  -0.419
20. RRIRCRPPRLPRPRPRPCFMPRP  -0.416
21. RRIRCRPPRLPRPRPRPFCTPRP  -0.401
22. RRIRCRPPRLPRPRPRPFEIPRP  -0.341
23. RRIRCRPPRLPRPRPRPCVIPRP  -0.334
24. RRIRCRPPRLPRPRPRPHWDPRP  -0.306
25. RRIRCRPPRLPRPRPRPFNKPRP  -0.305
26. RRIRCRPPRLPRPRPRPHQHPRP  -0.302
27. RRIRCRPPRLPRPRPRPCNIPRP  -0.3
28. RRIRCRPPRLPRPRPRPHYAPRP  -0.299
29. RRIRCRPPRLPRPRPRPFQCPRP  -0.296
30. RRIRCRPPRLPRPRPRPDIGPRP  -0.293
31. RRIRCRPPRLPRPRPRPCPVPRP  -0.28
32. RRIRCRPPRLPRPRPRPCNCPRP  -0.278
33. RRIRCRPPRLPRPRPRPDFGPRP  -0.275
34. RRIRCRPPRLPRPRPRPHRHPRP  -0.275
35. RRIRCRPPRLPRPRPRPFGTPRP  -0.256
36. RRIRCRPPRLPRPRPRPFKYPRP  -0.246
37. RRIRCRPPRLPRPRPRPDKIPRP  -0.24
38. RRIRCRPPRLPRPRPRPDTWPRP  -0.234
39. RRIRCRPPRLPRPRPRPHPIPRP  -0.229
40. RRIRCRPPRLPRPRPRPGHFPRP  -0.217
41. RRIRCRPPRLPRPRPRPCPYPRP  -0.215
42. RRIRCRPPRLPRPRPRPEQGPRP  -0.205
43. RRIRCRPPRLPRPRPRPHMSPRP  -0.193
44. RRIRCRPPRLPRPRPRPCHAPRP  -0.191
45. RRIRCRPPRLPRPRPRPCTEPRP  -0.186
46. RRIRCRPPRLPRPRPRPDHSPRP  -0.184
47. RRIRCRPPRLPRPRPRPDQVPRP  -0.183
48. RRIRCRPPRLPRPRPRPFSPPRP  -0.181
49. RRIRCRPPRLPRPRPRPCSVPRP  -0.177
50. RRIRCRPPRLPRPRPRPGYDPRP  -0.167
51. RRIRCRPPRLPRPRPRPGTNPRP  -0.15
52. RRIRCRPPRLPRPRPRPHGKPRP  -0.15
53. RRIRCRPPRLPRPRPRPFVPPRP  -0.139
54. RRIRCRPPRLPRPRPRPGDNPRP  -0.125
55. RRIRCRPPRLPRPRPRPFSNPRP  -0.117
56. RRIRCRPPRLPRPRPRPGDMPRP  -0.115
57. RRIRCRPPRLPRPRPRPDWMPRP  -0.11
58. RRIRCRPPRLPRPRPRPDHWPRP  -0.109
59. RRIRCRPPRLPRPRPRPFAKPRP  -0.108
60. RRIRCRPPRLPRPRPRPCICPRP  -0.105
61. RRIRCRPPRLPRPRPRPIALPRP  -0.102
62. RRIRCRPPRLPRPRPRPHGLPRP  -0.0989
63. RRIRCRPPRLPRPRPRPDTCPRP  -0.0965
64. RRIRCRPPRLPRPRPRPHRAPRP  -0.096
65. RRIRCRPPRLPRPRPRPHGFPRP  -0.0942
66. RRIRCRPPRLPRPRPRPFDGPRP  -0.0927
67. RRIRCRPPRLPRPRPRPHDRPRP  -0.0905
68. RRIRCRPPRLPRPRPRPCMYPRP  -0.0898
69. RRIRCRPPRLPRPRPRPCQNPRP  -0.0888
70. RRIRCRPPRLPRPRPRPDSMPRP  -0.0886
71. RRIRCRPPRLPRPRPRPGICPRP  -0.0835
72. RRIRCRPPRLPRPRPRPHYIPRP  -0.0818
73. RRIRCRPPRLPRPRPRPDLYPRP  -0.0793
74. RRIRCRPPRLPRPRPRPFHPPRP  -0.075
75. RRIRCRPPRLPRPRPRPFRDPRP  -0.0732
76. RRIRCRPPRLPRPRPRPCWAPRP  -0.0725
77. RRIRCRPPRLPRPRPRPFEKPRP  -0.0689
78. RRIRCRPPRLPRPRPRPGMDPRP  -0.0572
79. RRIRCRPPRLPRPRPRPEVMPRP  -0.0567
80. RRIRCRPPRLPRPRPRPFTLPRP  -0.048
81. RRIRCRPPRLPRPRPRPFKVPRP  -0.0177
82. RRIRCRPPRLPRPRPRPFETPRP  -0.0151
83. RRIRCRPPRLPRPRPRPDPHPRP  -0.015
84. RRIRCRPPRLPRPRPRPEDGPRP  -0.0134
85. RRIRCRPPRLPRPRPRPERQPRP  -0.00823
86. RRIRCRPPRLPRPRPRPEIEPRP  -0.00676
87. RRIRCRPPRLPRPRPRPGDFPRP  -0.0027
88. RRIRCRPPRLPRPRPRPFDSPRP  -0.00174
89. RRIRCRPPRLPRPRPRPFHYPRP  -2.22e-05
90. RRIRCRPPRLPRPRPRPEWFPRP  0.000144
91. RRIRCRPPRLPRPRPRPDMEPRP  0.000584
92. RRIRCRPPRLPRPRPRPCHTPRP  0.00624
93. RRIRCRPPRLPRPRPRPDKRPRP  0.00837
94. RRIRCRPPRLPRPRPRPDDYPRP  0.0185
95. RRIRCRPPRLPRPRPRPDNCPRP  0.0206
96. RRIRCRPPRLPRPRPRPEKMPRP  0.0239
97. RRIRCRPPRLPRPRPRPDWAPRP  0.0311
98. RRIRCRPPRLPRPRPRPEIPPRP  0.0317
99. RRIRCRPPRLPRPRPRPFASPRP  0.0328
100. RRIRCRPPRLPRPRPRPCWYPRP  0.0339
101. RRIRCRPPRLPRPRPRPGSLPRP  0.0481
102. RRIRCRPPRLPRPRPRPGRYPRP  0.0533
103. RRIRCRPPRLPRPRPRPECHPRP  0.0568
104. RRIRCRPPRLPRPRPRPDPKPRP  0.0617
105. RRIRCRPPRLPRPRPRPDPTPRP  0.0668
106. RRIRCRPPRLPRPRPRPGTPPRP  0.0685
107. RRIRCRPPRLPRPRPRPFVWPRP  0.0706
108. RRIRCRPPRLPRPRPRPDFWPRP  0.0753
109. RRIRCRPPRLPRPRPRPGCFPRP  0.0804
110. RRIRCRPPRLPRPRPRPDWKPRP  0.0808
111. RRIRCRPPRLPRPRPRPGYAPRP  0.085
112. RRIRCRPPRLPRPRPRPGVSPRP  0.0886
113. RRIRCRPPRLPRPRPRPFEAPRP  0.102
114. RRIRCRPPRLPRPRPRPGFCPRP  0.124
115. RRIRCRPPRLPRPRPRPGDPPRP  0.132
116. RRIRCRPPRLPRPRPRPEIDPRP  0.138
117. RRIRCRPPRLPRPRPRPGGDPRP  0.142
118. RRIRCRPPRLPRPRPRPEPSPRP  0.146
119. RRIRCRPPRLPRPRPRPDPQPRP  0.17
120. RRIRCRPPRLPRPRPRPEDMPRP  0.176
121. RRIRCRPPRLPRPRPRPGRDPRP  0.18
122. RRIRCRPPRLPRPRPRPHAGPRP  0.185
123. RRIRCRPPRLPRPRPRPEIAPRP  0.193
124. RRIRCRPPRLPRPRPRPEWNPRP  0.202
125. RRIRCRPPRLPRPRPRPHARPRP  0.204
126. RRIRCRPPRLPRPRPRPCFWPRP  0.216
127. RRIRCRPPRLPRPRPRPEVEPRP  0.254
128. RRIRCRPPRLPRPRPRPGACPRP  0.257
129. RRIRCRPPRLPRPRPRPFATPRP  0.287
130. RRIRCRPPRLPRPRPRPGAKPRP  0.309
131. RRIRCRPPRLPRPRPRPESPPRP  0.315
132. RRIRCRPPRLPRPRPRPGWQPRP  0.331
133. RRIRCRPPRLPRPRPRPGFAPRP  0.354
134. RRIRCRPPRLPRPRPRPDGWPRP  0.378
135. RRIRCRPPRLPRPRPRPHWRPRP  0.382
136. RRIRCRPPRLPRPRPRPFRWPRP  0.406
137. RRIRCRPPRLPRPRPRPDDNPRP  0.423
138. RRIRCRPPRLPRPRPRPHPRPRP  0.444
139. RRIRCRPPRLPRPRPRPEQMPRP  0.45
140. RRIRCRPPRLPRPRPRPGDAPRP  0.466
141. RRIRCRPPRLPRPRPRPEIWPRP  0.471
142. RRIRCRPPRLPRPRPRPDADPRP  0.472
143. RRIRCRPPRLPRPRPRPERGPRP  0.472
144. RRIRCRPPRLPRPRPRPHLVPRP  0.565
145. RRIRCRPPRLPRPRPRPGGWPRP  0.656
146. RRIRCRPPRLPRPRPRPGAPPRP  0.734
147. RRIRCRPPRLPRPRPRPEGAPRP  0.766
148. RRIRCRPPRLPRPRPRPEMRPRP  0.835
149. RRIRCRPPRLPRPRPRPEATPRP  0.95
150. RRIRCRPPRLPRPRPRPFHNPRP  2.29
